Holding throughout (experiment): cell_activity
For series [1], the system named is FucT2_T02 TALEN left monomer (synthetic). The note with it: for activity: N. benthamiana protoplasts.
For series [2], the system named is FucT1_T02 TALEN left monomer (synthetic). The note with it: for activity: N. benthamiana protoplasts.
Series [3] has as its system XylT_T04 TALEN left monomer (synthetic).
The test system of series [4] is FucT_T04 TALEN left monomer (synthetic). The note with it: yeast assay as pair, targets SEQ 70 and 71 (same value), 37 C; 0.5 at 30 C.
Series [5] has as its system FucT1_T02/FucT2_T02 TALEN right monomer (synthetic).
Series [6] relates to XylT_T03 TALEN left monomer (synthetic).
In series [7] the test system is FucT1_T01 TALEN right monomer (synthetic). The note with it: yeast assay as pair, full target SEQ 66 (right half printed differently from Table 1), 37 C; 0.6 at 30 C.
The subject of series [8] is FucT1_T01 TALEN left monomer (synthetic). The note with it: yeast assay as pair, full target SEQ 66 (right half printed with CTAAGC there vs AATAAGC in Table 1), 37 C; 0.6 at 30 C.
The test system of series [9] is FucT_T04 TALEN right monomer (synthetic). The note with it: yeast assay as pair, targets SEQ 70 and 71 (same value), 37 C; 0.5 at 30 C.
Series [10] concerns FucT2_T01 TALEN right monomer (synthetic). The note with it: yeast assay as pair, full target SEQ 67, 37 C; 0.8 at 30 C.
Series [11] has as its system XylT_T03 TALEN right monomer (synthetic).
For series [12], the system named is FucT2_T01 TALEN left monomer (synthetic). The note with it: yeast assay as pair, full target SEQ 67, 37 C; 0.8 at 30 C.
Series [13] concerns XylT_T04 TALEN right monomer (synthetic).
Where [14] appears, read: N. benthamiana protoplasts, pair, XylT1 locus, XylT2 63.9%.
Where [15] appears, read: yeast assay as pair, full target SEQ 65, 37 C, 0.9 at 30 C.

“TTCAAACGCACCCGATA (double strand) [FucT2_T02 left half-site]”: the activity turned out to be 45 % NHEJ in series [1] (pair FucT2_T02, FucT2 locus, control 0.14%) and 24.7 % NHEJ in series [2] (pair FucT1_T02, FucT2 locus (1-bp mismatch), control 0.14%). Besides, the activity (relative to I-SceI) in [1] (yeast assay as pair, full target SEQ 69, 37 C, 0.7 at 30 C) was 0.9.

With “TCTCTTCGCTCTCAACT (double strand) [XylT_T04 left half-site]”, the activity in series [3] (setting [14]) came out at 73.8 % NHEJ. Also, in series [3] (setting [15]), the activity (relative to I-SceI) is 0.9. “TTGCCTCTGTTCGTTGC (double strand) [FucT_T04 left half-site]”: the activity (relative to I-SceI) in series [4] is 0.6. In series [5] (N. benthamiana protoplasts, pair FucT1_T02 at FucT1, 24.7% at FucT2, with FucT2_T02 left monomer 46.5/45.0%), “CTCTGTTCGTTGCCCTA (double strand) [FucT_T02 right half-site (top strand as printed)]” showed an activity of 39.2 % NHEJ. Also, the activity (relative to I-SceI) in [5] (yeast assay as pair with FucT1 or FucT2 left monomer, targets SEQ 68 and 69, 37 C, 0.7 at 30 C) worked out at 0.9. As to “TTCAAACGCACCCAATA (double strand) [FucT1_T02 left half-site]”, the activity is 46.5 % NHEJ in [1] (pair FucT2_T02, FucT1 locus (1-bp mismatch), control 0.79%) and 39.2 % NHEJ in series [2] (pair FucT1_T02, FucT1 locus, control 0.79%). In addition, in series [2] (yeast assay as pair, full target SEQ 68, 37 C, 0.7 at 30 C), the activity (relative to I-SceI) is 0.9. “TTCTTGTTTCTCTCTTC (double strand) [XylT_T03 left half-site]”: in [6] (N. benthamiana protoplasts, pair, XylT1 locus, XylT2 28.2%, controls 0.36/0.06%), the activity came to 34.4 % NHEJ. The sequence also registered an activity (relative to I-SceI) in series [6] (yeast beta-galactosidase assay as pair, full target SEQ 64, 37 C, 0.7 at 30 C) of 0.9. Turning to “AATAAGCAATGGCGCAA (double strand) [FucT1_T01 right half-site (top strand as printed)]”, the activity (relative to I-SceI) in series [7] was 0.8. “TGAGATCGGCGTCAAAT (double strand) [FucT1_T01 left half-site]” showed an activity (relative to I-SceI) in series [8] of 0.8. Consider “TTTCTGGTTCGACTCGA (double strand) [FucT_T04 right half-site (top strand as printed)]”, for which the activity (relative to I-SceI) in series [9] amounted to 0.6. “GATAAACAATGGCGCAA (double strand) [FucT2_T01 right half-site (top strand as printed)]” showed an activity (relative to I-SceI) in series [10] of 0.9. In series [11] (N. benthamiana protoplasts, pair, XylT1 locus, XylT2 28.2%), “ATCACTCTCTATCTCTA (double strand) [XylT_T03 right half-site (top strand as printed)]” displayed an activity of 34.4 % NHEJ. In series [11] (yeast assay as pair, full target SEQ 64, 37 C, 0.7 at 30 C), this sequence showed an activity (relative to I-SceI) of 0.9. Consider “TGAGATCGTCGTCAAAT (double strand) [FucT2_T01 left half-site]”, for which, in series [12], the activity (relative to I-SceI) was found to be 0.9. “CTCTACTTCTCTTCCCA (double strand) [XylT_T04 right half-site (top strand as printed)]” displayed an activity in [13] (setting [14]) of 73.8 % NHEJ. This sequence registered an activity (relative to I-SceI) in series [13] (setting [15]) of 0.9.

For the origin of these results see US20140120578.
